The values that follow come from patent US20180245121A1.

Experiment [1] concerns the target FKBP-GDH(155-454AA) (Acinetobacter calcoaceticus) (UniProt P62942). Nature of the experiment: self-reconstitution of split GDH fragments without ligand; method not described (GDH activity assay implied).
The target is the same in experiment [2]. Kind of experiment: cell-based or functional assay.

UniProt P62942, sequence (P62942 2-108, tags or fused parts left off): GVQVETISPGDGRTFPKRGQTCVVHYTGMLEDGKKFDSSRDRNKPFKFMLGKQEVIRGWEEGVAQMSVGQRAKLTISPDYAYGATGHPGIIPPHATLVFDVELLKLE

Consider “GDH(1-153AA)-FRB (from UniProt P42345 2021-2113)”, for which the Kd in experiment [1] is 50 to 100 nM. For the same substance, in experiment [2], the GDH activity; observed rates on rapamycin titration fitted to a quadratic equation was 11 nM.

For orientation: Kd means the constant that tells how readily two partners part at equilibrium.
